The record followed here is patent US20220017591A1 (AstraZeneca / MedImmune, published 2022).

Holding throughout (test): cell-based or functional assay
In one assay the target is T1, human RXFP1 (human, UniProt Q9HBX9 1-757).
T1 sequence (looked up): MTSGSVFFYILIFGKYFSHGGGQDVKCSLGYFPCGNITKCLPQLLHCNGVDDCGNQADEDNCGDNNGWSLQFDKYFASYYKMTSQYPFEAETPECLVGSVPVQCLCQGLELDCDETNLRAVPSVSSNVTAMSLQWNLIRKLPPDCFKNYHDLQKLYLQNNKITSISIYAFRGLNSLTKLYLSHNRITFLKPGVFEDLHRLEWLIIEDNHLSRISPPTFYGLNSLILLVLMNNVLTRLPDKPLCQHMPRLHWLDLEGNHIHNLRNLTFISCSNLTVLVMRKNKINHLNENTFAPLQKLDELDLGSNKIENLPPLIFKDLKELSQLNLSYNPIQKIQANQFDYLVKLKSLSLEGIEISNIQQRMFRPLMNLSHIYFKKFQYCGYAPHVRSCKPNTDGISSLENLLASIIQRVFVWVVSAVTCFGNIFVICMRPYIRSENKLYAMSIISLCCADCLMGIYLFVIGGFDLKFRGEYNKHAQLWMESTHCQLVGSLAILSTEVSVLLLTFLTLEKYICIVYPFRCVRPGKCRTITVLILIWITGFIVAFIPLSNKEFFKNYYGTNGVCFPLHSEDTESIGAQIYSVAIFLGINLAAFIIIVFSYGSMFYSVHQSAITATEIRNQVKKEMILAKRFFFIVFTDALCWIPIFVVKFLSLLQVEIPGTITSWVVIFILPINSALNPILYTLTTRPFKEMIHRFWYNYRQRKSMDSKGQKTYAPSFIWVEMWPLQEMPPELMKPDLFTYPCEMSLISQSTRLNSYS

In a further assay the target is T2, mouse RXFP1 (mouse, UniProt Q6R6I7 1-758).
T2 sequence (looked up): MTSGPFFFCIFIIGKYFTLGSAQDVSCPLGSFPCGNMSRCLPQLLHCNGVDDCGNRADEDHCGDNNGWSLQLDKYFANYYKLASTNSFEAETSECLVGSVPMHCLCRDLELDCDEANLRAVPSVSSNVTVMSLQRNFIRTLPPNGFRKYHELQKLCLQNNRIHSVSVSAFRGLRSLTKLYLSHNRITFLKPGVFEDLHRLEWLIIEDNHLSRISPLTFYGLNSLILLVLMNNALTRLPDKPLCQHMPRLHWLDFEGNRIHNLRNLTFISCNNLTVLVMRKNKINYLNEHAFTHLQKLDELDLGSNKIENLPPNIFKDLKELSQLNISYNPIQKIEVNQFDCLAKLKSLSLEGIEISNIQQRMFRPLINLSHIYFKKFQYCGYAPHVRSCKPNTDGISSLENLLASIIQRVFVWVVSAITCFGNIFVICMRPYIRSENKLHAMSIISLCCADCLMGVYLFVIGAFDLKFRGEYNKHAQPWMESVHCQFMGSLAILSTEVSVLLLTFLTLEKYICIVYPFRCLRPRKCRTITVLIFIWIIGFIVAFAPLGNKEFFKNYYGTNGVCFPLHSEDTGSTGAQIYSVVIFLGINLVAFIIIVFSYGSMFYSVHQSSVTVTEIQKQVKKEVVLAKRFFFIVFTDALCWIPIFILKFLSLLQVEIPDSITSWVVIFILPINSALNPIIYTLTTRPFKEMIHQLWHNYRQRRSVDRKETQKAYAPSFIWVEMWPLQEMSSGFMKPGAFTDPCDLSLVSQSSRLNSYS

In the next assay the target is human RXFP2 (human, UniProt Q8WXD0 1-754).
Sequence of human RXFP2 (Q8WXD0 whole entry): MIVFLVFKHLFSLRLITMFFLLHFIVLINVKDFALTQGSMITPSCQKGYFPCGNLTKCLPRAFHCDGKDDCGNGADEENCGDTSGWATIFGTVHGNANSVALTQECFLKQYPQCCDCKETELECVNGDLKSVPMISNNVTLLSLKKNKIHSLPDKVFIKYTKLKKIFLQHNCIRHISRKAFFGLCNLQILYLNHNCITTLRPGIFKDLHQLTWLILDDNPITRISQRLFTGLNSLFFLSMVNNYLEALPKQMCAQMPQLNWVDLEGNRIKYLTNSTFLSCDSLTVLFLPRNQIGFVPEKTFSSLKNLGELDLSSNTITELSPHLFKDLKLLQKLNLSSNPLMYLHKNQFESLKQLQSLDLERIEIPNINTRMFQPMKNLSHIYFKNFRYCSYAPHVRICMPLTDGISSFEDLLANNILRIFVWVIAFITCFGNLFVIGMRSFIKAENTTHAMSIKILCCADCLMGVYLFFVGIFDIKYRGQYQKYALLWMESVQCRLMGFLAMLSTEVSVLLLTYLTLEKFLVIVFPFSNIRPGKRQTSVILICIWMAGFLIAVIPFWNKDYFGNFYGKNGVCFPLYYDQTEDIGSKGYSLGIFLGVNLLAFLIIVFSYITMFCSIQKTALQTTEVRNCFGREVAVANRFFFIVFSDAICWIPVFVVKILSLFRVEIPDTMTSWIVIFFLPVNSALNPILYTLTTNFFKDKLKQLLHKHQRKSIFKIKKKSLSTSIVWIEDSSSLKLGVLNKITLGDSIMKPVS

B1: RELAX0069 (Fc fusion)
chain 1: DKTHTCPPCPAPEFEGGPSVFLFPPKPKDTLMISRTPEVTCVVVDVSHEDPEVKFNWYVDGVEVHNAKTKPREEQYNSTYRVVSVLTVLHQDWLNGKEYKCKVSNKALPASIEKTISKAKGQPREPQVYTLPPCREEMTKNQVSLWCLVKGFYPSDIAVEWESNGQPENNYKTTPPVLDSDGSFFLYSKLTVDKSRWQQGNVFSCSVMHEALHNHYTQKSLSLSPGGGGGSGGGGSGGGGSGGGGGSQLYSALANKCCHVGCTKRSLAMFC
chain 2: DKTHTCPPCPAPEFEGGPSVFLFPPKPKDTLMISRTPEVTCVVVDVSHEDPEVKFNWYVDGVEVHNAKTKPREEQYNSTYRVVSVLTVLHQDWLNGKEYKCKVSNKALPASIEKTISKAKGQPREPQVCTLPPSREEMTKNQVSLSCAVKGFYPSDIAVEWESNGQPENNYKTTPPVLDSDGSFFLVSKLTVDKSRWQQGNVFSCSVMHEALHNHYTQKSLSLSPGGGGGSGGGGSGGGGSGGGGGSSWMEEVIKLCGRELVRAQIAICGMSTWS
Consider B1, for which the “EC50 hRXFP1 (M), cAMP assay” value with human RXFP1 came out at 5.76e-11 M. The “EC50 mRXFP1 (M), cAMP assay” value with mouse RXFP1 turned out to be 3.69e-11 M. Moreover, in the assay with human RXFP2, the “EC50 hRXFP2 (M), cAMP assay” value was greater than 1.62e-07 M.

B2: RELAX0072 (Fc fusion)
chain 1: DKTHTCPPCPAPEFEGGPSVFLFPPKPKDTLMISRTPEVTCVVVDVSHEDPEVKFNWYVDGVEVHNAKTKPREEQYNSTYRVVSVLTVLHQDWLNGKEYKCKVSNKALPASIEKTISKAKGQPREPQVYTLPPCREEMTKNQVSLWCLVKGFYPSDIAVEWESNGQPENNYKTTPPVLDSDGSFFLYSKLTVDKSRWQQGNVFSCSVMHEALHNHYTQKSLSLSPGGGGGSGGGGSGGGGSGGGGGSQLYSALANKCCHVGCTKRSLAAFC
chain 2: DKTHTCPPCPAPEFEGGPSVFLFPPKPKDTLMISRTPEVTCVVVDVSHEDPEVKFNWYVDGVEVHNAKTKPREEQYNSTYRVVSVLTVLHQDWLNGKEYKCKVSNKALPASIEKTISKAKGQPREPQVCTLPPSREEMTKNQVSLSCAVKGFYPSDIAVEWESNGQPENNYKTTPPVLDSDGSFFLVSKLTVDKSRWQQGNVFSCSVMHEALHNHYTQKSLSLSPGGGGGSGGGGSGGGGSGGGGGSSWMEEVIKLCGRELVRAQIAICGMSTWS
Consider B2, for which, in the assay with human RXFP1, the “EC50 hRXFP1 (M), cAMP assay” value was 8.53e-11 M. Further, the “EC50 mRXFP1 (M), cAMP assay” value in the assay with mouse RXFP1 came to 4.03e-11 M. Moreover, the “EC50 hRXFP2 (M), cAMP assay” value in the assay with human RXFP2 was greater than 2.3e-07 M.

B3: RELAX0070 (Fc fusion)
chain 1: DKTHTCPPCPAPEFEGGPSVFLFPPKPKDTLMISRTPEVTCVVVDVSHEDPEVKFNWYVDGVEVHNAKTKPREEQYNSTYRVVSVLTVLHQDWLNGKEYKCKVSNKALPASIEKTISKAKGQPREPQVYTLPPCREEMTKNQVSLWCLVKGFYPSDIAVEWESNGQPENNYKTTPPVLDSDGSFFLYSKLTVDKSRWQQGNVFSCSVMHEALHNHYTQKSLSLSPGGGGGSGGGGSGGGGSGGGGGSQLYSALANKCCHVGCTKRSLAIFC
chain 2: DKTHTCPPCPAPEFEGGPSVFLFPPKPKDTLMISRTPEVTCVVVDVSHEDPEVKFNWYVDGVEVHNAKTKPREEQYNSTYRVVSVLTVLHQDWLNGKEYKCKVSNKALPASIEKTISKAKGQPREPQVCTLPPSREEMTKNQVSLSCAVKGFYPSDIAVEWESNGQPENNYKTTPPVLDSDGSFFLVSKLTVDKSRWQQGNVFSCSVMHEALHNHYTQKSLSLSPGGGGGSGGGGSGGGGSGGGGGSSWMEEVIKLCGRELVRAQIAICGMSTWS
Consider B3, for which, in the assay with human RXFP1, the “EC50 hRXFP1 (M), cAMP assay” value was determined as 6.67e-11 M. Moreover, the “EC50 mRXFP1 (M), cAMP assay” value with mouse RXFP1 was determined as 5.02e-11 M. Besides, the “EC50 hRXFP2 (M), cAMP assay” value with human RXFP2 came to 1.07e-07 M.

B4: RELAX0075 (Fc fusion)
chain 1: DKTHTCPPCPAPEFEGGPSVFLFPPKPKDTLMISRTPEVTCVVVDVSHEDPEVKFNWYVDGVEVHNAKTKPREEQYNSTYRVVSVLTVLHQDWLNGKEYKCKVSNKALPASIEKTISKAKGQPREPQVYTLPPCREEMTKNQVSLWCLVKGFYPSDIAVEWESNGQPENNYKTTPPVLDSDGSFFLYSKLTVDKSRWQQGNVFSCSVMHEALHNHYTQKSLSLSPGGGGGSGGGGSGGGGSGGGGGSQLYSALANKCCHVGCTKRSLARIC
chain 2: DKTHTCPPCPAPEFEGGPSVFLFPPKPKDTLMISRTPEVTCVVVDVSHEDPEVKFNWYVDGVEVHNAKTKPREEQYNSTYRVVSVLTVLHQDWLNGKEYKCKVSNKALPASIEKTISKAKGQPREPQVCTLPPSREEMTKNQVSLSCAVKGFYPSDIAVEWESNGQPENNYKTTPPVLDSDGSFFLVSKLTVDKSRWQQGNVFSCSVMHEALHNHYTQKSLSLSPGGGGGSGGGGSGGGGSGGGGGSSWMEEVIKLCGRELVRAQIAICGMSTWS
Consider B4, for which the “EC50 hRXFP1 (M), cAMP assay” value with human RXFP1 was 9.47e-11 M. Moreover, the “EC50 mRXFP1 (M), cAMP assay” value with mouse RXFP1 was found to be 6.14e-11 M. The “EC50 hRXFP2 (M), cAMP assay” value with human RXFP2 is greater than 1.43e-07 M.

B5: RELAX0071 (Fc fusion)
chain 1: DKTHTCPPCPAPEFEGGPSVFLFPPKPKDTLMISRTPEVTCVVVDVSHEDPEVKFNWYVDGVEVHNAKTKPREEQYNSTYRVVSVLTVLHQDWLNGKEYKCKVSNKALPASIEKTISKAKGQPREPQVYTLPPCREEMTKNQVSLWCLVKGFYPSDIAVEWESNGQPENNYKTTPPVLDSDGSFFLYSKLTVDKSRWQQGNVFSCSVMHEALHNHYTQKSLSLSPGGGGGSGGGGSGGGGSGGGGGSQLYSALANKCCHVGCTKRSLAQFC
chain 2: DKTHTCPPCPAPEFEGGPSVFLFPPKPKDTLMISRTPEVTCVVVDVSHEDPEVKFNWYVDGVEVHNAKTKPREEQYNSTYRVVSVLTVLHQDWLNGKEYKCKVSNKALPASIEKTISKAKGQPREPQVCTLPPSREEMTKNQVSLSCAVKGFYPSDIAVEWESNGQPENNYKTTPPVLDSDGSFFLVSKLTVDKSRWQQGNVFSCSVMHEALHNHYTQKSLSLSPGGGGGSGGGGSGGGGSGGGGGSSWMEEVIKLCGRELVRAQIAICGMSTWS
Consider B5, for which the “EC50 hRXFP1 (M), cAMP assay” value with human RXFP1 was 6.87e-11 M. The “EC50 mRXFP1 (M), cAMP assay” value with mouse RXFP1 amounted to 3.93e-11 M. Moreover, the “EC50 hRXFP2 (M), cAMP assay” value in the assay with human RXFP2 amounted to 1.15e-07 M.

B6: RELAX0073 (Fc fusion)
chain 1: DKTHTCPPCPAPEFEGGPSVFLFPPKPKDTLMISRTPEVTCVVVDVSHEDPEVKFNWYVDGVEVHNAKTKPREEQYNSTYRVVSVLTVLHQDWLNGKEYKCKVSNKALPASIEKTISKAKGQPREPQVYTLPPCREEMTKNQVSLWCLVKGFYPSDIAVEWESNGQPENNYKTTPPVLDSDGSFFLYSKLTVDKSRWQQGNVFSCSVMHEALHNHYTQKSLSLSPGGGGGSGGGGSGGGGSGGGGGSQLYSALANKCCHVGCTKRSLAYFC
chain 2: DKTHTCPPCPAPEFEGGPSVFLFPPKPKDTLMISRTPEVTCVVVDVSHEDPEVKFNWYVDGVEVHNAKTKPREEQYNSTYRVVSVLTVLHQDWLNGKEYKCKVSNKALPASIEKTISKAKGQPREPQVCTLPPSREEMTKNQVSLSCAVKGFYPSDIAVEWESNGQPENNYKTTPPVLDSDGSFFLVSKLTVDKSRWQQGNVFSCSVMHEALHNHYTQKSLSLSPGGGGGSGGGGSGGGGSGGGGGSSWMEEVIKLCGRELVRAQIAICGMSTWS
Regarding B6, in the assay with human RXFP1, the “EC50 hRXFP1 (M), cAMP assay” value is 5.7e-11 M. Moreover, in the assay with mouse RXFP1, the “EC50 mRXFP1 (M), cAMP assay” value amounted to 4.15e-11 M. Besides, the “EC50 hRXFP2 (M), cAMP assay” value with human RXFP2 amounted to 8.63e-08 M.

B7: RELAX0074 (Fc fusion)
chain 1: DKTHTCPPCPAPEFEGGPSVFLFPPKPKDTLMISRTPEVTCVVVDVSHEDPEVKFNWYVDGVEVHNAKTKPREEQYNSTYRVVSVLTVLHQDWLNGKEYKCKVSNKALPASIEKTISKAKGQPREPQVYTLPPCREEMTKNQVSLWCLVKGFYPSDIAVEWESNGQPENNYKTTPPVLDSDGSFFLYSKLTVDKSRWQQGNVFSCSVMHEALHNHYTQKSLSLSPGGGGGSGGGGSGGGGSGGGGGSQLYSALANKCCHVGCTKRSLASFC
chain 2: DKTHTCPPCPAPEFEGGPSVFLFPPKPKDTLMISRTPEVTCVVVDVSHEDPEVKFNWYVDGVEVHNAKTKPREEQYNSTYRVVSVLTVLHQDWLNGKEYKCKVSNKALPASIEKTISKAKGQPREPQVCTLPPSREEMTKNQVSLSCAVKGFYPSDIAVEWESNGQPENNYKTTPPVLDSDGSFFLVSKLTVDKSRWQQGNVFSCSVMHEALHNHYTQKSLSLSPGGGGGSGGGGSGGGGSGGGGGSSWMEEVIKLCGRELVRAQIAICGMSTWS
B7: the “EC50 hRXFP1 (M), cAMP assay” value in the assay with human RXFP1 came out at 5.45e-11 M. For the same molecule, in the assay with mouse RXFP1, the “EC50 mRXFP1 (M), cAMP assay” value is 4.53e-11 M. The “EC50 hRXFP2 (M), cAMP assay” value with human RXFP2 is 9.21e-08 M.
